± gives the standard deviation of the averaged measurements.
Tested on: ATP
Assay: switch fluorescence ratio, 500 uM ATP over buffer (Cy3 cluster intensity, sum of 5 cycles each) (fold (ratio)); higher = stronger signal-on switching upon ATP binding; sequences stand for … in TCGTCGGCAGCGTCAGATGTGTATAAGAGACAGTTTTTTTTTTTTTTTTTTTTTTTTT…TC
Settings: aptamer strand: ATP DNA aptamer (quencher-CACCTGGGGGAGTATTGCGGAGGAAGG + anchor), 100 nM annealed; ATP concentration: 500 uM
Procedure, shortened: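 Exposure to 500 uM ATP lasted 15 min at 22 °C before imaging, and a selection-buffer image was taken beforehand, for Cy3-labelled switching-strand clusters on a modified Illumina MiSeq flow-cell annealed to 100 nM quencher-labelled ATP aptamer. Five buffer/ATP cycles were run with NaOH stripping and re-annealing between them. The fluorescence ratio per cluster is summed target-cycle over summed buffer-cycle Cy3 intensity, averaged per switch-domain sequence. Clusters outside 100-1000 RFU were excluded.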

Row | Sequence | switch fluorescence ratio
1 | TTGGCTCTGG | 0.987 ± 0.02
2 | GGGGATTGCT | 0.986 ± 0.025
3 | GATGTTTGAG | 0.991 ± 0.017
4 | ACCAGGAGAT | 1.046 ± 0.0011
5 | AACGTATGTG | 0.937 ± 0.025
6 | GAGATATGAG | 1.02 ± 0.024
7 | CCGGGCCTGC | 1.11 ± 0.014
8 | CTAGGGGGTG | 1.03 ± 0.062
9 | GAGTTAGTAG | 0.966 ± 0.02
10 | CCGGGGGTCA | 1.01 ± 0.039
11 | GAGTTTTTTA | 0.98 ± 0.046
12 | GATGTCCCAG | 1 ± 0.017
13 | AACGGTAAAT | 1.01 ± 0.085
14 | GGTGGGGACG | 0.974 ± 0.037
15 | TTATGTTTTA | 0.9965 ± 0.0046
16 | AGGAGTCTAT | 0.9774 ± 0.0094
17 | TGGGAACGAT | 1.011 ± 0.0034
18 | TTTATTGGCT | 1 ± 0.051
19 | TGCATACAGT | 1.03 ± 0.046
20 | TTTAACGGGG | 0.987 ± 0.034
21 | GCTTGGGGTC | 0.953 ± 0.011
22 | TATAGTAACT | 1.03 ± 0.041
23 | GAGTCATGAG | 1.06 ± 0.049
24 | CGGGTCTCGA | 1.03 ± 0.04
25 | TGCAACCTCA | 1.09 ± 0.043

Row | Sequence | switch fluorescence ratio
26 | AAAGGGGTAT | 1.03 ± 0.027
27 | GGGGCTCATT | 0.983 ± 0.021
28 | AGCGTTGAGT | 0.985 ± 0.032
29 | TTGGGCGACG | 1.036 ± 0.0032
30 | TTAAAATGGT | 1 ± 0.052
31 | CACTATAATG | 1.05 ± 0.042
32 | AACGGGGAAG | 0.995 ± 0.022
33 | CGTATGCAAA | 1.06 ± 0.058
34 | CACGGGCTTC | 1.016 ± 0.0084
35 | CATTGTATGT | 0.9421 ± 0.0087
36 | AACTTGGCTT | 0.969 ± 0.035
37 | TCCGGTGTTT | 1.081 ± 0.0036
38 | CTCAGTAGTT | 1.018 ± 0.0053
39 | AGGGGCACAA | 1.01 ± 0.024
40 | TTCTCTATGT | 1.01 ± 0.035
41 | AGGATAGTGT | 0.985 ± 0.036
42 | AGGTTCGGAT | 0.985 ± 0.056
43 | TTCCAATTAG | 0.968 ± 0.059
44 | TTATTGCTTT | 1 ± 0.036
45 | ACACCTAAAC | 1.065 ± 0.0096
46 | TTCTCAGAGG | 1.01 ± 0.029
47 | GAACGAAAGG | 1.03 ± 0.042
48 | TCGAACTGAT | 1.02 ± 0.03
49 | TGGTAATATC | 1.012 ± 0.0024
50 | TTGGTGTGTT | 1.01 ± 0.013

Row | Sequence | switch fluorescence ratio
51 | TTTTGGTATA | 1.05 ± 0.055
52 | TCTGTTTACG | 0.996 ± 0.016
53 | AGCACATGTA | 0.998 ± 0.021
54 | AAATCGGGTT | 1.15 ± 0.28
55 | GTCGTAAGTT | 1.01 ± 0.024
56 | GGGTTTACGA | 1.01 ± 0.074
57 | AGTTATTTTT | 0.991 ± 0.011
58 | TAAGAAAGTT | 1.41 ± 0.58
59 | GCGAAAGTTG | 1.014 ± 0.0032
60 | TTTTTGCCTA | 1.015 ± 0.0089
61 | TATGGCATGG | 1 ± 0.05
62 | AAATGATTGG | 0.982 ± 0.019
63 | TTGGGGGGTG | 1.04 ± 0.14
64 | CTAGGCTTTT | 1.02 ± 0.079
65 | AAAGACGTTT | 1 ± 0.016
66 | TTTTAGTTCT | 1.25 ± 0.42
67 | TGAGATTTTT | 0.975 ± 0.048
68 | AATGGGATTC | 0.9881 ± 0.009
69 | TTTGAATTTT | 0.998 ± 0.024
70 | TATAGGGCAT | 1.01 ± 0.032
71 | ATATCATGTT | 0.995 ± 0.036
72 | ACTTGGGGGT | 1.02 ± 0.016
73 | TGGAGCCTTT | 1.1 ± 0.18
74 | CGGCATGGTG | 0.98 ± 0.02
75 | GATGTTTGGC | 1.05 ± 0.013

Row | Sequence | switch fluorescence ratio
76 | GTTTCGTTTC | 1.01 ± 0.025
77 | TCCGATTTAT | 0.989 ± 0.026
78 | CTTGTGTACG | 0.965 ± 0.02
79 | TGGGTATTCC | 1.021 ± 0.0085
80 | TTTGTTTGG | 1 ± 0.017
81 | GGGAATTATA | 0.984 ± 0.018
82 | ATAACTCGGA | 1 ± 0.0019
83 | AGTTATTAAT | 1.06 ± 0.054
84 | GATTGGATCG | 0.9904 ± 0.0051
85 | TTTGCCAGTT | 0.9847 ± 0.0019
86 | AATAGGAATG | 0.996 ± 0.017
87 | TGGTTGAATA | 0.998 ± 0.05
88 | TAGAGCTGTT | 0.969 ± 0.031
89 | GATGTGCGAG | 1.01 ± 0.017
90 | GCCATTAAAC | 0.972 ± 0.03
91 | CTTCGGTGGC | 1.01 ± 0.04
92 | TACATTGGGC | 1 ± 0.013
93 | AGAATGTACG | 1.015 ± 0.0078
94 | GATGTAGGAT | 0.978 ± 0.014
95 | CGCGACCATT | 0.967 ± 0.051
96 | AGGGATTCCG | 1 ± 0.032
97 | AGTATGGGGG | 1.02 ± 0.015
98 | AGGGGTACAG | 0.995 ± 0.04
99 | CGCTCATCTG | 0.968 ± 0.052
100 | TGACGGAGAA | 1.01 ± 0.015

Row | Sequence | switch fluorescence ratio
101 | ACATTTATGT | 0.9939 ± 0.0052
102 | TTCCTTGGTA | 1.04 ± 0.038
103 | AATATTTAGG | 0.987 ± 0.035
104 | AGTTGAGATG | 0.971 ± 0.033
105 | TTGGTCAATC | 1.04 ± 0.024
106 | ATGGTAGTGC | 0.986 ± 0.016
107 | TCTGAGTCCA | 1.032 ± 0.0022
108 | AATTGACCCC | 1.09 ± 0.023
109 | AGATAACCCA | 1 ± 0.052
110 | TTTGGAAAAC | 0.9853 ± 0.0027
111 | GGTAAAGGAT | 0.991 ± 0.039
112 | CTATGTGATT | 1.025 ± 0.0017
113 | CCGGCGCGTG | 1.06 ± 0.1
114 | TTATCGGGGT | 1.019 ± 0.008
115 | ATGCATGGAC | 1.11 ± 0.12
116 | GGATTAAAGG | 1.03 ± 0.013
117 | GCGGGAGATA | 1.01 ± 0.037
118 | GGGTAGACAG | 0.9316 ± 0.0069
119 | CGGGTGCCAT | 0.994 ± 0.018
120 | TCTTGTAAGT | 0.992 ± 0.023
121 | CACGGTACGT | 1.06 ± 0.022
122 | AAAAAAATTT | 1 ± 0.029
123 | TGGGGTCAGG | 1.016 ± 0.0086
124 | ACGCTACATT | 1.39 ± 0.031
125 | GAATTGTTAG | 0.972 ± 0.028

Row | Sequence | switch fluorescence ratio
126 | CGGAATGGGG | 1.02 ± 0.015
127 | TAATGAAAAA | 1 ± 0.039
128 | GGGGGTAAAG | 1.01 ± 0.022
129 | TAACATGGCC | 1 ± 0.022
130 | TTGGGTATGA | 1.01 ± 0.037
131 | CTGGGCGGGG | 1.01 ± 0.026
132 | TTAACGGTTT | 0.988 ± 0.013
133 | ATCGATTGAT | 1.02 ± 0.011
134 | TTCGTTCTTG | 0.9641 ± 0.0076
135 | TGCTTTAGCG | 1.0155 ± 0.00011
136 | ACCCTCGAAT | 1.02 ± 0.011
137 | GAATTAGTTA | 1.01 ± 0.02
138 | GGGTTCATGT | 1.006 ± 0.0027
139 | AAGTTGTTTC | 0.988 ± 0.013
140 | GGCTAAAAAC | 1 ± 0.039
141 | CATGACCGAA | 1.014 ± 0.0039
142 | AAGGGGTTCT | 1.01 ± 0.016
143 | GTAGGCTAGT | 1 ± 0.033
144 | AATTCCATTT | 1.01 ± 0.023
145 | ATTACCCGGA | 1 ± 0.028
146 | CGGATGGCC | 0.965 ± 0.036
147 | TATGGCCGCC | 1.01 ± 0.043
148 | CGGGTATGGG | 0.984 ± 0.03
149 | GTGTGGGCAG | 0.973 ± 0.0026
150 | TTAATGTGCG | 1.01 ± 0.023

Row | Sequence | switch fluorescence ratio
151 | TTAGTGTACT | 1.07 ± 0.038
152 | ACTGGGATGT | 1.02 ± 0.0043
153 | TTTTTACAGA | 1.04 ± 0.025
154 | TTGGGGTACA | 0.9895 ± 0.0051
155 | AGGTACTCGA | 1.05 ± 0.02
156 | ACTAGCTTGT | 1.04 ± 0.026
157 | CAATGATTGA | 1.02 ± 0.018
158 | TCTCAGTCAC | 1.08 ± 0.018
159 | GCTTTAGGTA | 0.9843 ± 0.0058
160 | TTTAGGCTTG | 1.02 ± 0.017
161 | GTTGTAGCGG | 1 ± 0.029
162 | TGATGAGGGT | 1.02 ± 0.02
163 | CGATTGATCA | 1.004 ± 0.0075
164 | AGGAGGTATG | 0.976 ± 0.027
165 | TTATTGTAAT | 1.029 ± 0.0099
166 | CCGGGTCGGT | 0.9554 ± 0.0036
167 | ACTTTATGTT | 1.041 ± 0.0015
168 | AGTGGTGGTA | 0.998 ± 0.018
169 | TTATAAATAC | 1.91 ± 0.7
170 | GGCTTTTTTA | 1.05 ± 0.028
171 | TGTGGGTTCC | 1.06 ± 0.11
172 | ATGGAGGTTG | 1.03 ± 0.022
173 | AGCGGGTTTC | 1.02 ± 0.015
174 | GGTTTCATAT | 0.996 ± 0.026
175 | ATGGGCTCTT | 1.04 ± 0.049

Row | Sequence | switch fluorescence ratio
176 | CGGTTAAAGG | 0.974 ± 0.03
177 | CGCCGGCTTT | 1.019 ± 0.0085
178 | GGTTTCCCT | 0.973 ± 0.019
179 | ATTTGGAGTC | 1 ± 0.018
180 | GGCGCTTATA | 1 ± 0.042
181 | TGGCTAGGAC | 1.01 ± 0.04
182 | CATGAAGCTG | 1.02 ± 0.018
183 | TCGTAGATGT | 1 ± 0.026
184 | TTCCCACTAT | 1.023 ± 0.0078
185 | TAGCACAGTG | 1.15 ± 0.15
186 | AGGTCGGGAT | 1 ± 0.045
187 | GTTTATGCCA | 0.997 ± 0.029
188 | ACCTAGTTTT | 1.011 ± 0.0078
189 | GACTACGTTT | 1.02 ± 0.013
190 | ATTGAAACGA | 1.08 ± 0.039
191 | TTGGATTAAC | 1.01 ± 0.029
192 | TAGTTTGAAC | 1.01 ± 0.05
193 | TGATGAAATT | 1.02 ± 0.036
194 | GATGAAGATT | 1.011 ± 0.005
195 | ATTTTATATT | 1.02 ± 0.032
196 | GGCTGGCATT | 1.11 ± 0.15
197 | CAAGAGAATT | 0.9939 ± 0.005
198 | GAATGACCGT | 1.01 ± 0.024
199 | TAACAATTAA | 1.03 ± 0.058
200 | AAGCGTTGAG | 1.009 ± 0.0045

Source: the supplement of paper PMC10126150
